Assay [1] deals with T1, human CD123 (IL3Rα) on cells (human, UniProt P26951 19-378).
T1 construct: whole, on cells; also called human IL3Rα expressed on 293 cells; AD293hIL3Rα
Kind of assay: flow cytometry on THP-1 CD123 (no dox) cells, Geo MFI. As to the method: THP-1 cells were transfected with an IL3Rα expression construct under the control of a doxycycline inducible promoter. THP-1 cells were maintained in DMEM containing 10% heat-inactivated fetal bovine serum (FBS) and were cultured in a humidified atmosphere of 5% CO₂ and at a temperature of 37° C. […] (Dox) inducible cells were stimulated with 1 μg/ml dox overnight before use. […] On the day of plating, cells were spun down at 1500 rpm for 3 minutes, counted, and resuspended to a final concentration of 1×10⁶ cells/ml. Two hundred μl of cells were plated in wells of 96 well microtiter plates. The plates were spun down at 1500 rpm for 3 minutes and flicked to remove media. One hundred μl of FACS buffer (PBS+2% FBS) was added to each well. […] The antibody concentration started at 12 μg/ml followed by six 1:3 dilutions (no antibody control was also run). The plates were incubated at 4° C. for 30 minutes. Following incubation, the plates were washed 3 times by spinning down at 1500 rpm for 3 minutes, flicked and 100 μl of FACs buffer was added. Alexa 647 secondary antibody (goat anti-human IgG (H+L)) was added at 1:1000 dilution in 100 μl followed by 30 minute 4° C. incubation. The plates were washed as above. […] Cells were analyzed on a BD Bioscience LSRII by collecting 10,000 cells. Flow data was analyzed in FlowJo software.
A general note: A flow cytometer gives signals particle by particle.

For another assay, the target named is T2, human IL-5Rα (human, UniProt Q01344 21-342, limits assumed).
T2 construct: Soluble analyte in the Octet assay; construct not described; also called hIL5-Rα; human IL-5Ra sample
T2 sequence (looked up): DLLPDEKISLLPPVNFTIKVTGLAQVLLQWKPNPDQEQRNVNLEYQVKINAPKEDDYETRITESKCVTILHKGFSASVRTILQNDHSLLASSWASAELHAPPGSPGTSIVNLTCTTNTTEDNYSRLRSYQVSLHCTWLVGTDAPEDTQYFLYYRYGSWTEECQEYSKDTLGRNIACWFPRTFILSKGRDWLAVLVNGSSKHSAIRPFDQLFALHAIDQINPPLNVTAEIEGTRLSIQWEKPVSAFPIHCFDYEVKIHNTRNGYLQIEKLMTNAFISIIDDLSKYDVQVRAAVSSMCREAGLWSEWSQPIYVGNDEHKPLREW
Description: biolayer interferometry, HT12-GL on the sensor, Sample ID: hIL5Ra-his in solution. Here is the method: Biolayer interferometry binding experiments were performed using an Octet RED384 instrument, with all measurements made at 30° C. AHC biosensor probes were soaked in kinetics buffer (PBS pH 7.2+0.02% Tween-20, 0.1% BSA, 0.05% sodium azide) for 10 minutes, followed by baseline signal measurement in kinetics buffer for 60 seconds. […] For binding to hIL3-Rα, the antibody-loaded biosensor tips were dipped in binding buffer for 60 sec (baseline), followed by immersion in a solution containing dilutions of hIL3-Rα (10-0.16 μg/mL) for 300 sec (association), and subsequent immersion in kinetics buffer for 400 sec (dissociation). For binding to hIL5-Rα and GM-CSFRa, all steps were the same except the concentration of antigen was increased (50-1.56 μg/mL) and the dissociation step was decreased to 300 sec. The signal from a buffer only reference sample was subtracted, and all curves were fit with a 1:1 binding model to determine KD values.
(In general: BLI is a label-free optical method that tracks binding on a fibre tip over time.)

Assay [2] concerns the target T3, mouse IL3Rα expressed on 293 cells (mouse, UniProt P26952 17-396).
T3 construct: whole, on cells; also called mouse CD123
T3 sequence (looked up): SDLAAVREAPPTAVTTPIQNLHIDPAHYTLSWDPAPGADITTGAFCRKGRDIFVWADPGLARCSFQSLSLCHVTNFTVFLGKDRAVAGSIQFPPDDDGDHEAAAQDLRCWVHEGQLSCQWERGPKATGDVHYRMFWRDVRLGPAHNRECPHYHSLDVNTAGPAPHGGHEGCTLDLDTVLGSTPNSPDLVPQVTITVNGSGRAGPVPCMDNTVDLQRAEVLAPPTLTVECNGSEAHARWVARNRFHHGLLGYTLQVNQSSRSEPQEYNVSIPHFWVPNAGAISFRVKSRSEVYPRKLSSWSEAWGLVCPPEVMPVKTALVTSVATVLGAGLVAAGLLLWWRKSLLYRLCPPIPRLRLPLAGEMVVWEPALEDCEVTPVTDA
Kind of assay: flow cytometry with Alexa 647 labelled antibody on Ad293 cells expressing mouse IL3Ra, geometric mean. As to the method: AD293 cells were maintained in DMEM (Dulbecco's Modified Eagle Medium) containing 10% heat-inactivated fetal bovine serum (FBS) and were cultured in a humidified atmosphere of 5% CO2 and at a temperature of 37° C. On the day of plating, cells were spun down at 1500 rpm for 3 minutes, counted, and resuspended to a final concentration of 0.3×10⁶ cells/ml. Two hundred μl of cells were plated to wells of 96 well microtiter plate. Plates were spun down at 1500 rpm for 3 minutes and flicked to remove media. One hundred μl of FACs buffer (PBS [Phosphate Buffer Saline]+2% FBS) was added to the wells. Plates were then spun again as above followed by addition of primary antibody in 100 μl of FACS buffer. […] Antibody concentration started at 12 μg/ml followed by six 1:3 dilutions (no antibody control was also run). Plates were incubated at 4° C. for 30 minutes. Following incubation plates were washed 3 times by spinning down at 1500 rpm for 3 minutes, flicked and 100 μl of FACS buffer were added. Following a final wash, 100 μl of FACS buffer containing live/dead DAPI (diamidino-2-phenylindole) stain was added to the plates. […] Flow data was analyzed in FlowJo software.

T1 sequence (P26951 19-378): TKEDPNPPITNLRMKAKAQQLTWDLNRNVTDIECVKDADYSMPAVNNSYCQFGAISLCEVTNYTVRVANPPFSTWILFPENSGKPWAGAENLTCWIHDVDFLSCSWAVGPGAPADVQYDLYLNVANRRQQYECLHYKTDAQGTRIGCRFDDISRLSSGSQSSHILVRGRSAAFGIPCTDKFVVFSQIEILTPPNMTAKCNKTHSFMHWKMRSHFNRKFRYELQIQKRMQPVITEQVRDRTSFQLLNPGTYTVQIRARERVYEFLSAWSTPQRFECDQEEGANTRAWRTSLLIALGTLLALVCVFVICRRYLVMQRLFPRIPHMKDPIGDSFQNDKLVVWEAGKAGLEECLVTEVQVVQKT

B1: HT12-GL antibody (antibody, human IgG1, kappa, V domains shown)
VH: EVQLLESGGGLVQPGGSLRLSCAASGFTFNIYAMTWVRQAPGKGLEWVSGISAGGDSTYYADSVKGRFTISRDNSKNTLYLQMNSLRAEDTAVYYCAKDRGYYYGMDVWGQGTTVTVSS
VL: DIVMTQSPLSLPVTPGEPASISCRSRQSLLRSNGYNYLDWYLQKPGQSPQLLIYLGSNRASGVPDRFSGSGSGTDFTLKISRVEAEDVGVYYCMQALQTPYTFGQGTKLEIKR
notes: elsewhere unlabeled with a secondary antibody; also called HT12-GL mAb; CD123 mAb
What is called EC50 (read off the curve) is the concentration needed to bring the measured effect to its halfway point. The low end stands for a more potent agent, the high end for a less potent agent. Consider B1, for which, in assay [1], the “EC50 (read off the curve)” value was ~0.2 µg/mL. In addition, the figures for the binding result (with human IL-5Rα; in assay [2]) were “no binding” and “no binding (tested: log 1.1 ug/ml (about 12 ug/ml))”, respectively.
